Experimental findings from patent US20100248978 are described below.

The data set concerns the target T1, p-hydroxyphenylpyruvate dioxygenase (HPPD) (Arabidopsis thaliana) (UniProt P93836).
T1 sequence: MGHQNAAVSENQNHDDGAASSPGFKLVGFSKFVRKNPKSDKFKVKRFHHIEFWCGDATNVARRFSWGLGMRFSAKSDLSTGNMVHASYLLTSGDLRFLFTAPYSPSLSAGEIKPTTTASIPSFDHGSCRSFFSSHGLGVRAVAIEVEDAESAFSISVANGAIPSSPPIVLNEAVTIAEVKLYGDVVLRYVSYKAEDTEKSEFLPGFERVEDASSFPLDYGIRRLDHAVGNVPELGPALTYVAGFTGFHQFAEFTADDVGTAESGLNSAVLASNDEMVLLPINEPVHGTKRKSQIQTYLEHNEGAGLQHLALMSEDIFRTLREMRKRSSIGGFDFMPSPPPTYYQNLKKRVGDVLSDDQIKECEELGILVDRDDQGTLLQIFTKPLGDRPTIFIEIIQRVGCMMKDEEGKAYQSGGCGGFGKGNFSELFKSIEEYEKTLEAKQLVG
Description: filter. As to conditions: 500 nM HPPD, 10% DMSO.

On to “GGGAGAGGAGGGAGAUAGAUAUCAANNNNNNNNNNNNNNNNNNNNNNNNNNNNNNNNNNNNNNNNNNNNNNNAGUUUGUCCUCACGGUGGAUGG [S115B enriched library (cycle 9)]”, for which the binding signal (% RNA retained) worked out at 10.
